Results as given in patent US20230124851A1 (INHIBRX LNC, published 2023).
Numbering of substitutions follows the chain as printed. Values belong to the binder of their own block, whether it stands above or below them.

What was measured:
[1] = molecular target: T1, CD3 on the surface of human T cells (human, UniProt P07766 23-207); experiment: flow cytometry on isolated T cells, anti-human Fc secondary
T1 construct: whole, on cells; Part of the CD3/TCR complex on cells; also called CD3 epsilon
Experimental: Binding of exemplary multispecific constructs containing an antigen-binding domain directed against B7H3 were assessed for binding to B7H3 positive A375 tumor cells or primary T-cells. The constructs were generated containing antigen-binding domain(s) that were either sdAbs or a FABs, and that were positioned either only N-terminal to the Fc or both N-terminal to the Fc and C-terminal to the anti-CD3 binding domain (see FIGS. 30A and 30C and Table E5). Among the various formats of constructs tested included: sdAb-Fc-dsFV-sdAb (cx3072, cx5952) sdAb-Fc-FV (cx6079), sdAb-Fc-dsFV (cs6080, cx6081), MAB-FV (cx5067) and MAB-dsFV (cx6083, cx6084), where the FV represents the anti-CD3 binding domain composed of VH and VL domain pairs and “ds” notes disulfide stabilized via an engineered interdomain disulfide bond.
Binding was assessed as described above via flow cytometry using a fluorophore-conjugated anti-human Fc secondary antibody. cx3072 bound to A375 cells with high affinity (FIG. 31A) but not to isolated T-cells (FIG. 31B). […] The B7H3 -targeting sdAb containing constructs (cx5952, cx6079, cx6080, and cx6081) bound to B7H3 positive cells with similar affinities (depicted in FIG. 31E), with cx5952 displaying higher maximal binding. cx6079, cx6080 and cx6081 contain two identical B7H3-targeting sdAbs, whereas cx5952, and cx3072 contain two distinct B7H3-targeting sdAb that bind different epitopes. The MAB-FV, cx5067, contains two identical B7H3-targeting FAB domains.

[2] = molecular target: T2, human B7H3 (CD276) on the cell surface (human, UniProt Q5ZPR3 29-534); experiment: flow cytometry on A375 cells (B7H3+), anti-human Fc secondary
T2 construct: B7H3 on A375 and other B7H3-positive or transfected cells
T2 sequence: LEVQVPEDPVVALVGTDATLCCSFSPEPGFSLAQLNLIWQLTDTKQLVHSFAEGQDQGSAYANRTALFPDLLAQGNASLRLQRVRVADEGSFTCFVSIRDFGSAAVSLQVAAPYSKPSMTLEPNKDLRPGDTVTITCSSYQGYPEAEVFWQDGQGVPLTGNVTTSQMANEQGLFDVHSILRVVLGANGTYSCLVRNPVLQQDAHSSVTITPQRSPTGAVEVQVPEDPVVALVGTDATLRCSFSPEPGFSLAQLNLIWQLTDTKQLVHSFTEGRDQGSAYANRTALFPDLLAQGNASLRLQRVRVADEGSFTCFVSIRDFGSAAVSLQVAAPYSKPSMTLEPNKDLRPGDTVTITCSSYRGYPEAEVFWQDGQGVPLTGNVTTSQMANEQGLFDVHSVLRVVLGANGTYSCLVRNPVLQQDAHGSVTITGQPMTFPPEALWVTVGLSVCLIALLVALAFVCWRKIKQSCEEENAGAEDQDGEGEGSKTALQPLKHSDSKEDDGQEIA

[3] = molecular target: T1, CD3 on the surface of human T cells; experiment: flow cytometry on primary human T cells, anti-human IgG APC secondary
Experimental: Binding of exemplary B7H3-targeting constrained CD3 engaging constructs set forth in Table E3 to CD3 on the surface of primary T cells or B7H3-expressing cells (A375) was assessed by flow cytometry. The T cells were primary T-cells that were negatively enriched from PBMCs isolated from healthy human donor peripheral blood leukopaks. Bound construct was detected with fluorophore-conjugated secondary antibodies specific for the human Fc (anti-human IgG APC secondary antibody) and binding was measured by flow cytometry. Cells incubated with secondary antibody only served as negative controls. Binding was compared to Dual-affinity Re-targeting Antibody (DART)-monomeric Fc format targeting B7H3 and CD3 (DART-Fc B7H3xCD3; see e.g. WO2017030926A1).

T1 sequence (P07766 23-207): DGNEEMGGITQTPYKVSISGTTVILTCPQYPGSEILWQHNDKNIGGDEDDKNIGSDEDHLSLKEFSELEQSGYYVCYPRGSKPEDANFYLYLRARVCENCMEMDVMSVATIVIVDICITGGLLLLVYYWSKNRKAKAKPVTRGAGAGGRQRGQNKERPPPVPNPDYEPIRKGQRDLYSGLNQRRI

B1: cx5187 (bispecific antibody)
chain 1: EVQLVESGGGEVQPGGSLRLSCAASGFSFSSNVMMWVRQAPGKGLEWVSTIYSSGTGTFYAESVKGRFTISRDNAKNTLYLQMSSLRPEDTAVYYCATSGPVRGWGPRSQGTLVTVKPPGGGGDKTHTCPPCPAPGGPSVFLFPPKPKDTLMISRTPEVTCVVVDVSHEDPEVKFNWYVDGVEVHNAKTKPREEQYNSTYRVVSVLTVLHQDWLNGKEYKCKVSNKALPAPIEKTISKAKGQPREPQVYTLPPCRDELTKNQVSLWCLVKGFYPSDIAVEWESNGQPENNYKTTPPVLDSDGSFFLYSKLTVDKSRWQQGNVFSCSVMHEALHNHYTQKSLSLSPTGGGGGSGGGGGSGGGGGSEVQLVESGGGLVQPGGSLRLSCAASGFTFNTYAMNWVRQAPGKCLEWVARIRSKYNNYATYYADSVKGRFTISRDDAKNTLYLQMSSLRAEDTAVYYCVRHGNFGNSYVSWFAYWGQGTLVTVKPGGGGEVQLVESGGGEVQPGGSLRLSCAASGFTFSSYHMSWFRQAPGKQREPVATSHHGGTTNYAGSVKGRFTISRDNAKNTVYLQMNTLRAEDTAVYYCKADHGYQGRGYWGQGTLVTVKP
chain 2: DKTHTCPPCPAPGGPSVFLFPPKPKDTLMISRTPEVTCVVVDVSHEDPEVKFNWYVDGVEVHNAKTKPREEQYNSTYRVVSVLTVLHQDWLNGKEYKCKVSNKALPAPIEKTISKAKGQPREPQVCTLPPSRDELTKNQVSLSCAVKGFYPSDIAVEWESNGQPENNYKTTPPVLDSDGSFFLVSKLTVDKSRWQQGNVFSCSVMHEALHNRYTQKSLSLSPTGGGGGSGGGGGSGGGGGSQAVVTQEPSLTVSPGGTVTLTCGSSTGAVTTSNYANWVQQKPGQAFRGLIGGTNKRAPGVPARFSGSLLGGKAALTISGAQPEDEADYYCALWYSNHWVFGCGTKLEIKGGGGEVQLLESGGGEVQPGGSLRLSCAASGFSFSINAMGWYRQAPGKRREFVAAIESGRNTVYAESVKGRFTISRDNAKNTVYLQMSSLRAEDTAVYYCGLLKGNRVVSPSVAYWGQGTLVTVKP
- binding result [1]: no binding
- binding result [2]: binds

B2: cx5873 (bispecific antibody)
chain 1: DKTHTCPPCPAPGGPSVFLFPPKPKDTLMISRTPEVTCVVVDVSHEDPEVKFNWYVDGVEVHNAKTKPREEQYNSTYRVVSVLTVLHQDWLNGKEYKCKVSNKALPAPIEKTISKAKGQPREPQVYTLPPCRDELTKNQVSLWCLVKGFYPSDIAVEWESNGQPENNYKTTPPVLDSDGSFFLYSKLTVDKSRWQQGNVFSCSVMHEALHNHYTQKSLSLSPTGGGGGSGGGGGSGGGGGSEVQLVESGGGLVQPGGSLRLSCAASGFTFNTYAMNWVRQAPGKCLEWVARIRSKYNNYATYYADSVKGRFTISRDDAKNTLYLQMSSLRAEDTAVYYCVRHGNFGNSYVSWFAYWGQGTLVTVKPGGGGEVQLVESGGGEVQPGGSLRLSCAASGFTFSSYHMSWFRQAPGKQREPVATSHHGGTTNYAGSVKGRFTISRDNAKNTVYLQMNTLRAEDTAVYYCKADHGYQGRGYWGQGTLVTVKP
chain 2: B1 chain 2
notes: first-named used
- binding result [1]: no binding
- binding result [2]: binds

B5: cx4908 (bispecific antibody)
chain 1: EVQLVESGGGEVQPGGSLRLSCAASGSTFSSYHMSWFRQAPGKQREPVATSHHGGTTNYAGSVKGRFTISRDNAKNTVYLQMNTLRAEDTAVYYCKADHGYQGRGYWGQGTLVTVKPDKTHTCPPCPAPGGPSVFLFPPKPKDTLMISRTPEVTCVVVDVSHEDPEVKFNWYVDGVEVHNAKTKPREEQYNSTYRVVSVLTVLHQDWLNGKEYKCKVSNKALPAPIEKTISKAKGQPREPQVYTLPPCRDELTKNQVSLWCLVKGFYPSDIAVEWESNGQPENNYKTTPPVLDSDGSFFLYSKLTVDKSRWQQGNVFSCSVMHEALHNHYTQKSLSLSPTGGSGGGGIEPDIGGSGGSEVQLVESGGGLVQPGGSLRLSCAASGFTFNTYAMNWVRQAPGKCLEWVARIRSKYNNYATYYADSVKGRFTISRDDAKNTLYLQMSSLRAEDTAVYYCVRHGNFGNSYVSWFAYWGQGTLVTVKPEVQLVESGGGEVQPGGSLRLSCAASGFSFGSNVMMWVRQAPGKGPEWVSTIYSSGTGTFYAESVKGRFTISRDNAKNTLYLQMSSLRAEDTAVYYCATSGPVRGWGPWSQGTLVTVKP
chain 2: DKTHTCPPCPAPGGPSVFLFPPKPKDTLMISRTPEVTCVVVDVSHEDPEVKFNWYVDGVEVHNAKTKPREEQYNSTYRVVSVLTVLHQDWLNGKEYKCKVSNKALPAPIEKTISKAKGQPREPQVCTLPPSRDELTKNQVSLSCAVKGFYPSDIAVEWESNGQPENNYKTTPPVLDSDGSFFLVSKLTVDKSRWQQGNVFSCSVMHEALHNRYTQKSLSLSPTGGSGGGGIEPDIGGSGGSQAVVTQEPSLTVSPGGTVTLTCGSSTGAVTTSNYANWVQQKPGQAFRGLIGGTNKRAPGVPARFSGSLLGGKAALTISGAQPEDEADYYCALWYSNHWVFGCGTKLTVLEVQLLESGGGEVQPGGSLRLSCAASGFSFSINAMGWYRQAPGKRREFVAAIESGRNTVYAESVKGRFTISRDNAKNTVYLQMSSLRAEDTAVYYCGLLKGNRVVSPSVAYWGQGTLVTVKP
notes: chain 2 ends in the 4-1BB sdAb RH3v5-1
- binding result [3]: no binding (tested: 200 nM)

B6: cx2846 (bispecific antibody, not shown: a dimerising Fc or GST)
chain 1: EVQLVESGGGEVQPGGSLRLSCAASGSTFSSYHMSWFRQAPGKQREPVATSHHGGTTNYAGSVKGRFTISRDNAKNTVYLQMNTLRAEDTAVYYCKADHGYQGRGYWGQGTLVTVKPGGSGGGGIEPDIGGSGGSEVQLVESGGGLVQPGGSLRLSCAASGFTFNTYAMNWVRQAPGKCLEWVARIRSKYNNYATYYADSVKGRFTISRDDAKNTLYLQMSSLRAEDTAVYYCVRHGNFGNSYVSWFAYWGQGTLVTVKPEVQLVESGGGEVQPGGSLRLSCAPSERTFSTYTMGWFRQAPGKEREFVAVVNWGGGSKYYAESVKGRFTISRDNAKNTVYLQMSSLRAEDTAVYYCAAGGAYSGPYYDTRQYTYWGQGTLVTVKP
chain 2: GGSGGGGIEPDIGGSGGSQAVVTQEPSLTVSPGGTVTLTCGSSTGAVTTSNYANWVQQKPGQAFRGLIGGTNKRAPGVPARFSGSLLGGKAALTISGAQPEDEADYYCALWYSNHWVFGCGTKLTVL
- binding result [3]: no binding (tested: 200 nM)

B7: cx3960 (bispecific antibody, not shown: a dimerising Fc or GST)
chain 1: EVQLVESGGGEVQPGGSLRLSCAASGSTFSSYHMSWFRQAPGKQREPVATSHHGGTTNYAGSVKGRFTISRDNAKNTVYLQMNTLRAEDTAVYYCKADHGYQGRGYWGQGTLVTVKPGGSGGGGIEPDIGGSGGSEVQLVESGGGLVQPGGSLRLSCAASGFTFNTYAMNWVRQAPGKCLEWVARIRSKYNNYATYYADSVKGRFTISRDDAKNTLYLQMSSLRAEDTAVYYCVRHGNFGNSYVSWFAYWGQGTLVTVKPQLQLQESGGGLVQAGDSLRLSCAASGFSFGSNVMMWVRQAPGKGPEWVSTIYSSGTGTFYADSVKGRFTISRNNAKNTLYLQMNSLKPDDTAVYYCATSGPVRGWGPRSQGTLVTVKP
chain 2: B6 chain 2
- binding result [3]: no binding (tested: 200 nM)

Further lines, results first:

- binding result [1]: no binding
- binding result [2]: binds
B3: cx5965 (bispecific antibody)
chain 1: EVQLVESGGGEVQPGGSLRLSCAASGFSFSSNVMMWVRQAPGKGLEWVSTIYSSGTGTFYAESVKGRFTISRDNAKNTLYLQMSSLRPEDTAVYYCATSGPVRGWGPRSQGTLVTVKPPGGGGDKTHTCPPCPAPGGPSVFLFPPKPKDTLMISRTPEVTCVVVDVSHEDPEVKFNWYVDGVEVHNAKTKPREEQYNSTYRVVSVLTVLHQDWLNGKEYKCKVSNKALPAPIEKTISKAKGQPREPQVYTLPPCRDELTKNQVSLWCLVKGFYPSDIAVEWESNGQPENNYKTTPPVLDSDGSFFLYSKLTVDKSRWQQGNVFSCSVMHEALHNHYTQKSLSLSPTGGGGGSGGGGGSGGGGGSEVQLVESGGGLVQPGGSLRLSCAASGFTFNTYAMNWVRQAPGKCLEWVARIRSKYNNYATYYADSVKGRFTISRDDAKNTLYLQMSSLRAEDTAVYYCVRHGNFGNSYVSWFAYWGQGTLVTVKP
chain 2: B1 chain 2
notes: first-named used

- binding result [1]: no binding
- binding result [2]: binds
B4: cx5823 (bispecific antibody)
chain 1: B1 chain 1 with T346G, P540L
chain 2: B1 chain 2 with T223G
